The values below come from patent US20180291110A1.

The experiment has as its target complement factor C1q (Sigma, C1740) (UniProt P02745). In words: flow cytometry, C1q on antibody-coated BT-474 cells. For orientation: A flow cytometer gives signals particle by particle.

Chain of complement factor C1q (Sigma, C1740) (P02745 23-245, chain 1 of 3): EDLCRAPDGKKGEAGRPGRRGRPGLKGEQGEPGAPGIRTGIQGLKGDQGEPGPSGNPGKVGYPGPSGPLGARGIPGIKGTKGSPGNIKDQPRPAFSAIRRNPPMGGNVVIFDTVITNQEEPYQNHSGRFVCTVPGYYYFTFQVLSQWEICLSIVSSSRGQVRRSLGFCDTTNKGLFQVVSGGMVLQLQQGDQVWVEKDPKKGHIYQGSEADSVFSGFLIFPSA
Chain of complement factor C1q (Sigma, C1740) (P02746 28-253, chain 2 of 3, further chain): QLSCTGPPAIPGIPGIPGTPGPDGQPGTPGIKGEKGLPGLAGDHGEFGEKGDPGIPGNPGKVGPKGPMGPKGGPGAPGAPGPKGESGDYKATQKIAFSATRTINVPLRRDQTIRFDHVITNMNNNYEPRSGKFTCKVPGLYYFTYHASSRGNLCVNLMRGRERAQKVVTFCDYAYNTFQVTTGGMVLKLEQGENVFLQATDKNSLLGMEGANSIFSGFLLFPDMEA
Chain of complement factor C1q (Sigma, C1740) (P02747 29-245, chain 3 of 3, further chain): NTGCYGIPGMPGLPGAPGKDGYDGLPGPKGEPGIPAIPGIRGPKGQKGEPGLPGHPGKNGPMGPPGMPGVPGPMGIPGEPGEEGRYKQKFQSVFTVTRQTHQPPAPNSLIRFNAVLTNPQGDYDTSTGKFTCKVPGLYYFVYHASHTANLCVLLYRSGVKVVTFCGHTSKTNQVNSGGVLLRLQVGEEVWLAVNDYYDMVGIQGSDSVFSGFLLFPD

The substance “combination of trastuzumab and pertuzumab” came in with a PE-signal (geomean) of 2160.
